From patent US9988614
Where a chain is given by its changes, count along the chain named.

Key:
[1] = tested on: T1, BbsI wild type (subunits A and B) (Brevibacillus laterosporus); test: cleavage_in_vitro; details: NEB4 buffer, relative activity 1; FI=32 in NEB1 (1/2), 120 in NEB2 (1), 64 in NEB3 (1/4); substrate sequence not stated
T1 sequence 1: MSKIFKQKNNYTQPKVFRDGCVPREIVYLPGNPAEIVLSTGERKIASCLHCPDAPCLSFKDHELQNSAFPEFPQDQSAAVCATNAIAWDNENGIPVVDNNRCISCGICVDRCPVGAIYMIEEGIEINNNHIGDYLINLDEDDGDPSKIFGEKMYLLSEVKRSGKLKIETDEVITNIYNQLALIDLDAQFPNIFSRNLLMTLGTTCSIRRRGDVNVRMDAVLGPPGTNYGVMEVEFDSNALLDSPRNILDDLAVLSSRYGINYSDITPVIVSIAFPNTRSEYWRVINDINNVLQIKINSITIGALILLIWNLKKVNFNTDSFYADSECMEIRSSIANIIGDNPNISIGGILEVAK
T1 sequence 2: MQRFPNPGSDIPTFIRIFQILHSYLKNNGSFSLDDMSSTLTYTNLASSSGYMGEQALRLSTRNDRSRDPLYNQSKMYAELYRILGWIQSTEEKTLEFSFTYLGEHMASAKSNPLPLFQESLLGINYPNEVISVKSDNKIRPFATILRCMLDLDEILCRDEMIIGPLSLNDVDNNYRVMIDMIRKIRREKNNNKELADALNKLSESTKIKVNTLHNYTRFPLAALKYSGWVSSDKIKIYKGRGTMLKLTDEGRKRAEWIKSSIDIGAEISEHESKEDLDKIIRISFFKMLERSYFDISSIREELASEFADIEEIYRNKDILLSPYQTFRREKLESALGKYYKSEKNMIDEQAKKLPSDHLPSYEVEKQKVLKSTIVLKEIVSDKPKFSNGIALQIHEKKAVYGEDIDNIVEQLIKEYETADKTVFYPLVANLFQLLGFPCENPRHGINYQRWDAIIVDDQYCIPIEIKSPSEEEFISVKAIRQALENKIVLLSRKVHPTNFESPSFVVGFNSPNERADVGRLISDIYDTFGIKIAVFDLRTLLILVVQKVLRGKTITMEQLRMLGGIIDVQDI

[2] = tested on: T2, BbsI P442A (subunit B variant) P442A (subunit B) (Brevibacillus laterosporus); test: cleavage_in_vitro; details: NEB4 buffer, relative activity 1; FI>=120 in NEB1 (1/4), >=32 in NEB2 (1/16), >=2 in NEB3 (1/256); reduced star activity
T2 sequence 1: T1 sequence 1
T2 sequence 2: T1 sequence 2 with P442A

“DNA substrate containing BbsI recognition site” was tested, and the activity (fidelity index) [1] was 64 and the activity (fidelity index) [2] was > 500.
